The target of the test is WWP2 N-terminal fragment X (C2 domain, WW1 domain, WW2 domain) of TEV-cleaved WWP2 (human, UniProt O00308 1-395). In words: SEC. In general terms: In gel filtration, larger molecules generally elute earlier.

B1: WWP2 C-terminal fragment Y (WW3 domain, WW4 domain, HECT domain) of TEV-cleaved WWP2 (domain or fragment)
chain: not shown
Turning to B1, the binding result is reported as “binds”.
